Where “and” joins values, the source holds several entries; their conditions need not be identical. Identical values can stand only once.
Conditions: Escherichia coli (strain K12); pH 7.8; 25 °C; Urea; CD; Potassium phosphate 10 mM; transition: 3; reversible: yes (>90%); whole UniProt chain shown

B1: Tryptophan synthase alpha chain wild type, P0A877 (protein)
chain: MERYESLFAQLKERKEGAFVPFVTLGDPGIEQSLKIIDTLIEAGADALELGIPFSDPLADGPTIQNATLRAFAAGVTPAQCFEMLALIRQKHPTIPIGLLMYANLVFNKGIDEFYAQCEKVGVDSVLVADVPVEESAPFRQAALRHNVAPIFICPPNADDDLLRQIASYGRGYTYLLSRAGVTGAENRAALPLNHLVAKLKEYNAAPPLQGFGISAPDQVKAAIDAGAAGAISGSAIVKIIEQHINEPEKMLAALKVFVQPMKAATRS
**Q.** Which denaturant m value does the source give for B1 here?
**A.** Its denaturant m value is 2.2 kcal/mol/M and 1.2 kcal/mol/M.

**Q.** What about the “denaturant midpoint (higher = more stable)” value of the same protein?
**A.** Its value is 2.62 M and 4.18 M.

**Q.** And the unfolding free energy?
**A.** Its unfolding free energy is 5.7 kcal/mol and 5 kcal/mol.
